Test results as given in patent US20160303245A1 (UNIVERSITY OF COPENHAGEN, published 2016).
Like-named read-outs stand apart in the source and are kept apart here. *1 amine or outer side, *2 acyl side, *3 side chain or, on linkers, in order; H or OH if unused. Where no end group is shown, it is not given here. The star is where a group is joined. γGlu = O=C(O)[C@H](CCC(=O)[*:2])N[*:1]; Stearoyl = CCCCCCCCCCCCCCCCCC(=O)*; Lauroyl = CCCCCCCCCCCC(=O)*; NPEG4 = not defined here; Ava = NCCCCC(=O)O; GABA = NCCCC(=O)O

B1: FA-linked dimeric ligand 4 (peptide)
peptide: {C17:0‑COOH acyl-GABA-NPEG4}-IETAV
modifications: not fully specified; reading uncertain; also: dimer: two chains joined at N-termini through NPEG4
notes: Synthetic dimer NPEG4(IETAV)2 with fatty acid on the linker nitrogen; also called compound 4
B2: FA-linked dimeric ligand 10 (peptide)
peptide: {C11:0‑COOH acyl-Ava-NPEG4}-IETAV
modifications: not fully specified; reading uncertain; also: dimer: two chains joined at N-termini through NPEG4, linker taken from row above (blank cell)
notes: Synthetic dimer NPEG4(IETAV)2 with fatty acid on the linker nitrogen; also called compound 10
B3: FA-linked dimeric ligand 11 (peptide)
peptide: {Stearoyl-Ava-NPEG4}-IETAV
modifications: not fully specified; reading uncertain; also: dimer: two chains joined at N-termini through NPEG4, linker taken from rows above (blank cell)
notes: Synthetic dimer NPEG4(IETAV)2 with fatty acid on the linker nitrogen; also called compound 11
B4: FA-linked dimeric ligand 9 (peptide)
peptide: IETAV
modifications: not fully specified; also: dimer: N-termini of two peptides joined through NPEG4 linker
notes: Synthetic dimer NPEG4(IETAV)2 with fatty acid on the linker nitrogen; also called compound 9
B5: FA-linked dimeric ligand 2 (peptide)
peptide: {C11:0‑COOH acyl-GABA-NPEG4}-IETAV
modifications: not fully specified; reading uncertain; also: dimer: two chains joined at N-termini through NPEG4, linker taken from row above (blank cell)
notes: Synthetic dimer NPEG4(IETAV)2 with fatty acid on the linker nitrogen; also called compound 2
B6: FA-linked dimeric ligand 6 (peptide)
peptide: {C11:0‑COOH acyl-γGlu-NPEG4}-IETAV
modifications: not fully specified; reading uncertain; also: dimer: two chains joined at N-termini through NPEG4, linker taken from row above (blank cell)
notes: Synthetic dimer NPEG4(IETAV)2 with fatty acid on the linker nitrogen; also called compound 6
B7: FA-linked dimeric ligand 5 (peptide)
peptide: {Lauroyl-γGlu-NPEG4}-IETAV
modifications: not fully specified; reading uncertain; also: dimer: two chains joined at N-termini through NPEG4
notes: Synthetic dimer NPEG4(IETAV)2 with fatty acid on the linker nitrogen; also called compound 5
B8: UCCB01-125 (peptide)
peptide: IETAV
modifications: also: dimer: two peptides joined by a linker, no fatty acid
notes: also called dimeric ligand UCCB01-125
B9: FA-linked dimeric ligand 7 (peptide)
peptide: {Stearoyl-γGlu-NPEG4}-IETAV
modifications: not fully specified; reading uncertain; also: dimer: two chains joined at N-termini through NPEG4
notes: Synthetic dimer NPEG4(IETAV)2 with fatty acid on the linker nitrogen; also called compound 7
B10: FA-linked dimeric ligand 1 (peptide)
peptide: {Lauroyl-GABA-NPEG4}-IETAV
modifications: not fully specified; reading uncertain; also: dimer: two chains joined at N-termini through NPEG4
notes: Synthetic dimer NPEG4(IETAV)2 with fatty acid on the linker nitrogen; also called compound 1
B11: FA-linked dimeric ligand 13 (peptide)
peptide: {Stearoyl-GABA-NPEG4}-IETDV
modifications: not fully specified; reading uncertain; also: dimer: two chains joined at N-termini through NPEG4
notes: IETDV analogue of compound 3, synthesized analogously to 1-12; also called compound 13
B12: FA-linked dimeric ligand 12 (peptide)
peptide: {C17:0‑COOH acyl-Ava-NPEG4}-IETAV
modifications: not fully specified; reading uncertain; also: dimer: two chains joined at N-termini through NPEG4, linker taken from rows above (blank cell)
notes: Synthetic dimer NPEG4(IETAV)2 with fatty acid on the linker nitrogen; also called compound 12
B13: FA-linked dimeric ligand 8 (peptide)
peptide: {C17:0‑COOH acyl-γGlu-NPEG4}-IETAV
modifications: not fully specified; reading uncertain; also: dimer: two chains joined at N-termini through NPEG4, linker taken from rows above (blank cell)
notes: Synthetic dimer NPEG4(IETAV)2 with fatty acid on the linker nitrogen; also called compound 8
B14: FA-linked dimeric ligand 3 (peptide)
peptide: {Stearoyl-GABA-NPEG4}-IETAV
modifications: not fully specified; reading uncertain; also: dimer: two chains joined at N-termini through NPEG4
notes: Synthetic dimer NPEG4(IETAV)2 with fatty acid on the linker nitrogen; also called compound 3

What was measured:
[1] = target: T1, PSD-95 PDZ1-2 (UniProt P78352 61-249, limits assumed); experiment: FP competition vs dimeric fluorescent probe, TBS + 1% HSA (apparent)
T1 construct: domain: PDZ1-2; also called PDZ1-2 of PSD-95

[2] = target: T2, Human Serum Albumin (human, UniProt P02768 25-609); experiment: calculated from KD(HSA) at 150 µM HSA (equation 2)
T2 construct: Bought reagent; also called HSA

[3] = target: T1, PSD-95 PDZ1-2; experiment: FP competition, TBS + 1% HSA, corrected for fu (free ligand)
[4] = target: T1, PSD-95 PDZ1-2; experiment: FP competition vs dimeric fluorescent probe, TBS
[5] = target: T2, Human Serum Albumin; experiment: Transil XL HSA binding kit (immobilized HSA), unbound compound by RP-HPLC
Procedure: (§1) The assay kit consisted of prefilled wells with increasing concentrations of immobilized HSA as well as two control wells without HSA. The HSA had been immobilized in a random fashion to ensure that all binding sites on HSA were available. To conduct the assay, the wells were incubated with a known concentration of the tested compounds, and the unbound amount of compound was quantified using analytical RP-HPLC (C8 column). The fraction of unbound drug (fᵤ) for each data point was calculated from the RP-HPLC data by comparison to a control sample without HSA.

[6] = target: T1, PSD-95 PDZ1-2; experiment: FP competition, TBS + 1% HSA
Procedure: (§2) The FP values were fitted to a one site competition (variable slope) model in GraphPad Prism. […] The modified FP assay was conducted as described above with 1% HSA in the assay.
The synthesized FA-linked dimeric ligands were evaluated for their affinity to PSD-95 PDZ1-2 in the FP assay.

[7] = target: T1, PSD-95 PDZ1-2; experiment: FP competition vs dimeric fluorescent probe, TBS + 1% HSA (apparent); remark: listed apart in the source
Procedure: as §2

[8] = target: T2, Human Serum Albumin; experiment: calculated from KD at 588 µM HSA (equation 2)
Procedure: as §1

[9] = target: T1, PSD-95 PDZ1-2; experiment: FP competition vs dimeric fluorescent probe, TBS; remark: listed apart in the source
[10] = target: T1, PSD-95 PDZ1-2; experiment: FP competition, TBS + 1% HSA, corrected for fu (free ligand); remark: listed apart in the source
Procedure: as §2

[11] = target: T2, Human Serum Albumin; experiment: calculated from KD(HSA) at 150 µM HSA (equation 2); remark: listed apart in the source
[12] = target: T2, Human Serum Albumin; experiment: Transil XL HSA binding kit (immobilized HSA), unbound compound by RP-HPLC; remark: listed apart in the source
Procedure: as §1

T1 sequence (P78352 61-249 limits assumed): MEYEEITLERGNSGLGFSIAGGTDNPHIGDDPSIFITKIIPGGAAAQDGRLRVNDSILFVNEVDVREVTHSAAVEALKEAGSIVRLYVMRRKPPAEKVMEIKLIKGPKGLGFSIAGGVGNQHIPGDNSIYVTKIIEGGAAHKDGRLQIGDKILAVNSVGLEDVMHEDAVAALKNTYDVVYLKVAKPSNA

Binder | Ki [1] [nM] | fu (%), fraction unbound [2] [%] | Ki [3] [nM] | Ki [4] [nM] | Kd [5] [nM] | fold lower apparent affinity than the dimeric ligands linked to the shorter FAs (C12:0 or C11:0-COOH) [6] [fold] | Ki [7] [nM] | fb (%), fraction bound to HSA [8] [%] | Ki [9] [nM] | Ki [10] [nM] | fu (%), fraction unbound [11] [%] | Kd [12] [nM] | fold affinity loss in TBS+HSA [6] [fold]
B1 | 5720 | 11.5 | 654 | 11.4 | 19400 | > 50 | 5720 | 96.5 | 11.4 | 654 | 11.5 | 19400 | –
B2 | 18.5 | – | – | 13.9 | – | – | – | 71 | – | 10.9 | 61.5 | 240000 | –
B3 | 1890 | – | – | 26.5 | – | > 50 | – | 97.9 | – | 16.8 | 7.8 | 12700 | 50
B4 | 13.4 | – | – | 20.5 | – | – | – | 91.4 | – | 2.6 | 27.1 | 55700 | –
B5 | 27.9 | – | – | 15.4 | – | – | – | 92.3 | – | 5.5 | 24.7 | 49300 | –
B6 | 26.4 | – | – | 33.7 | – | – | – | 90.1 | – | 7 | 30.1 | 64600 | –
B7 | 24 | – | – | 30.2 | – | – | – | 95.8 | – | 2.4 | 14.7 | 25800 | –
B8 | 9.7 | – | – | 14.3 | – | – | – | 77.6 | – | 4.1 | 50.7 | 154000 | –
B9 | 1390 | 4.3 | 59.1 | 17 | 6800 | > 50 | 1390 | 98.9 | 17 | 59.1 | 4.3 | 6800 | 50
B10 | 27.2 | – | – | 13.6 | – | – | – | 95.7 | – | 3.2 | 15.1 | 26600 | –
B11 | – | 35.6 | – | – | 83000 | – | – | – | – | – | – | – | –
B12 | 2930 | – | – | 11.5 | – | > 50 | – | 96.2 | – | 250 | 8.3 | 23500 | –
B13 | 3590 | – | – | 9.2 | – | > 50 | – | 94.5 | – | 669 | 18.6 | 34300 | –
B14 | 1890 | 3.1 | 57.2 | 11.1 | 4800 | > 50 | 1890 | 99.2 | 11.1 | 57.2 | 3.1 | 4800 | 50
